Reference: PMC5112522

Legend:
[1] = target: Recombinant gp41 protein from HIV-1 (HXB2 strain) (HIV-1 (HXB2 strain)) (UniProt P04578); test: SPR; gp120 (115 RUs) and gp41 (45 RUs) amine-coupled on a CM4 chip; lectins as analytes (two-fold dilutions, 0-20 nM HHA, 0-4000 nM Ld WCFS1, 0-1000 nM Ld CMPG5300); 1:1 binding model, apparent KD; 25 °C, Biacore T200, HBS-P pH 7.4 (10 mM HEPES, 150 mM NaCl, 0.05% P20) with 10 mM CaCl2
[2] = target: Recombinant gp120 protein from HIV-1 strain IIIB (HIV-1 strain IIIB) (UniProt P04578); test: as above
[3] = target: Recombinant gp120 protein from HIV-1 strain IIIB (HIV-1 strain IIIB) (UniProt P04578)

Substance	Kd [1] [nM]	koff [1] [s⁻¹]	kon [1] [M⁻¹ s⁻¹]	Kd [2] [nM]	koff [2] [s⁻¹]	kon [2] [M⁻¹ s⁻¹]	inhibition of HIV-1 infection in human CD4+ T-lymphocytic C8166 cell and Raji DCSIGN cultures (data not shown) [3] [µg/mL]
Hippeastrum hybrid (amaryllis) lectin (HHA) (natural protein)	0.836	0.00229	2.75e+06	1.32	0.00219	1.66e+06	
Lectin domain of Msa (Lp_1229) of Lactobacillus plantarum WCFS1 (from UniProt F9UN23 1-1010) (domain or fragment)	3300	0.0236	7150	6260	0.0164	2620	
Lectin domain of Msl (Cmpg5300.05_29) of Lactobacillus plantarum CMPG5300 (domain or fragment)	1620	0.0288	22900	1850	0.0564	30500	> 200
